Measured values reported in article PMC5986207, “Structural insights into the mechanism of action of a biparatopic anti-HER2 antibody” (The Journal of Biological Chemistry, 2018).

Biological target: T1, human HER2 extracellular domain, soluble, His-tagged (Homo sapiens)
T1 construct: human HER2 (ERBB2) extracellular domain, subdomains I-IV; the electron density covers amino acids 1 to 575, leaving the last 55 residues invisible; About 86 kDa, of which 17 kDa glycan; The purified His-tagged HER2 (crystals, AUC); also called HER2 ecd; soluble HER2; source: HEK293F; purified (IMAC, Superdex200) for crystals; cell culture supernatant for SPR
Assay: AUC; multisignal sedimentation velocity (MSSV), 4:1 molar loading of HER2 to antibody (5.8:1.4 μM), PBS, 20 °C, 42,000 rpm, UV 280 and 250 nm and interference, SEDPHAT
Conditions: both partners purified

stoichiometry N: 2 HER2 per 39S mAb
B1: anti-HER2 fully human mAb 39S (IgG1κ) (antibody, V domains shown)
VH: EVQLVESGGGLVKPGGSLRLSCAASGFTFSSYSMSWVRQAPGKGLEWVSSISSSSSYIYYADSVKGRFTISRDNAKNSLYLQMNSLRAEDTAVYYCARGGDAYNYYYFDYWGQGTLVTVSS
VL: DIVMTQTPLSLSVTPGQPASISCKSSQSVFFRSNNKNILAWYLQKPGQPPQLLIYWASSRESGVPDRFSGSGSGTDFTLKISRVEAEDVGVYYCQQYFGSPFTFGPGTKVDIK
notes: variable domain of the 39S heavy chain; as in the heavy chain of m1 (PDB 6ATT); human IgG1 heavy chain constant region (its CH1 is also in the heavy chain of PDB 6ATT); whole kappa light chain of 39S; as the light chain of m1 (PDB 6ATT); IgG1 kappa, about 148 kDa; also called 39S mAb; Antibody 39S
